Positions count from the first letter of the chain named.
B1: 2.1954.2 (antibody, V domains shown)
VH: QVQLVESGGGVVQPGRSLRLSCAASGFSFSIYGMHWVRQAPGKGLEWVAVIWFDGSNKYYADSVKGRFTISRDNSKNTLYLQMNSLRAEDTALYYCARDKASYYGSGMDYWGQGTLVTVSS
VL: EIVLTQSPGTLSLSPGERATLSCRASQSVSSTYLAWYQHRPGQAPRLLISGASRRATGIPDRFSGSGSGTDFTLTISRLEPEDFAVYYCQHYGSSFTWTFGQGTKVEIK
B2: 3.87.1.1 (antibody, V domains shown)
VH: QVQLVESGGGVVQPGRSLRLSCAASGFTFSSYGMHWVRQAPGKGLEWVAVIWYDRSNKYYADSVKGRFTISRDNSKNTLYLQMNSLRAEDTAVYYCAGGRSRGAFDYWGQGTLVTVSS
VL: DIQMTQSPSSVSASVGDRVTITCRASQGISSWLAWYQQKPGKAPKLLIFAASSLQSGVPSRFSGSGSGTDFTLTISSLQPEDFATYYCQRTNSFPRTFGQGTKVEIK
B3: 5.1.1.1 (antibody, V domains shown)
VH: QVQLVQSGAEVKKPGASVKVSCKASGYTFTSYDINWVRQATGQGLEWMGWMNPNSGNTGYAQQFQGRVTMTRNTSITTAYMELSSLRSEDTAVYYCAREEYSSSLFDSWGQGTLVTVSS
VL: DIQMTQSPSSLSASVGDRVTITCRASQGIRNNLGWFQQKPGKAPKRLIYAASSLQSGVPSRFSGSGSGTKFTLTISSLQPEDFATYFCLQHNRYPLTFGGGTKVEIK
B4: 2.1576.1.2 (antibody, V domains shown)
VH: EVQLVESGGGLVQPGGSLRLSCAASGFTFSSYWMSWVRQAPGKGLEWVANIKQDGSEKYYVDSVKGRFTISRDNAKNSLYLQMNSLRAEDTAVYYCARWGVFGSGSYYIPFDYWGQGTLVTVSS
VL: B3 VL with N32Y, G34A, R46S, R61T, K70H, T85S, L89Q, H91Y, N92E, R93I
B5: 5.9.3 (antibody, V domains shown)
VH: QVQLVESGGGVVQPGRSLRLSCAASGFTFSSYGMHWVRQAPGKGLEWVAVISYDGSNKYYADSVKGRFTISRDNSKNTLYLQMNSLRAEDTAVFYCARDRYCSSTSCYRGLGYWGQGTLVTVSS
VL: DIQMTQSPSSLSASVGDRVSITCRASQGIRNDLGWYQQKPGKAPTRLIYAASSLQSGVPSRFSGSGSGTEFTLTISSLQPEDFASYYCLQHNSFPWTFGQGTKVEIK
B6: 3.23.2 (antibody, V domains shown)
VH: EVQLVESGGGLVQPGGSLRLSCAASGFTFSNFWMSWVRQAPGKGLEWVANIKHGGSEKYYVDSVKGRFTISRDNAKNSLYLQMNRLRAEDTAVYYCARDPMYYFDYWGQGTLVTVSS
VL: B5 VL with S20T, G28D, G34D, T45K, S85T, S93G, F94Y, W96R, T97S, V104L
B7: 2.2002.3 (antibody, V domains shown)
VH: QVQLVESGGGVVQPGRSLRVSCAASGFMFRSYGMHWVRQAPGKGLEWVAVIWHDGSNKNHGDSVKGRFTISRDNSKNTLYLQMNSLRAEDTAVYYCARGRLAGGGPYYYYYYGMDVWGQGTTVTVSS
VL: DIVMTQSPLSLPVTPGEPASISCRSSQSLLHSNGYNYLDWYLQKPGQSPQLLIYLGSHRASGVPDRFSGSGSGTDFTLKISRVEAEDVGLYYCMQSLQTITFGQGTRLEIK
B8: 2.1954.2 (antibody, V domains shown)
VH: B1 VH
VL: B1 VL
B9: 3.457.3.1 (antibody, V domains shown)
VH: B2 VH with Y107F
VL: B2 VL with P40A, F49Y, A50S
B10: 3.472.1.1 (antibody, V domains shown)
VH: B2 VH with A61V
VL: B2 VL with G28D, N92S
B11: 3.772.2 (antibody, V domains shown)
VH: B2 VH with Y107F
VL: B2 VL with G28D, P40A, F49Y
B12: 3.805.1.3 (antibody, V domains shown)
VH: B2 VH
VL: B2 VL with K45N, F49Y, S93N
B13: 3.818.4 (antibody, V domains shown)
VH: EVQLVESGGGLVQPGGSLRLSCAASGFTFSSYSMNWVRQAPGKGLEWVSYISGSSTTMYYADSVKGRFTISRDNAKNSLYLQMNSLRDEDTAVYYCARLRHFDWSYAFDIWGQGTMVTVSS
VL: B2 VL with A13T, K39R, F49Y, Y87F, R90Q, T91A, N92T, R96F, Q100P, E105G
B14: 3.87.1.1 (antibody, V domains shown)
VH: B2 VH
VL: B2 VL
B15: 3.625.1.7 (antibody, V domains shown)
VH: B2 VH with N84D
VL: B2 VL with F49Y
B16: 4.16.2 (antibody, V domains shown)
VH: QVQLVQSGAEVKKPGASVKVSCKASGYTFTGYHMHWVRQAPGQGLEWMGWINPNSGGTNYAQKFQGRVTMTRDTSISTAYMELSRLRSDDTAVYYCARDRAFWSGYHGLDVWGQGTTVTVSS
VL: DIQMTQSPSSLSASVGDRVTITCRASQVIANYLAWYQQKPGKVPKLLIYAASTLQSGVPSRFSGSGSGTDFTLTISSLQPEDVATYYCHTYKSAPWTFGQGTKVEIK
B17: 3.23.3 (antibody, V domains shown)
VH: QVQLVESGGGVVQPGRSLRLSCAASGFTFSRYGMHWVRQAPGKGLEWVAVIWYDGRNKYYVDSVKGRFTISRDNSKNTLYLQMNSLRAEDTAVYYCVGVGITVTGAFDYWGQGTLVTVSS
VL: EIVMTQSPATLSVSPGERATLSCRASQSVRSNLAWYQQKPGQAPRLLIYGASTRVTDIPTRFSGSGSGTEFTLSISSLQSEDFAVYYCQQYNNWPRTFGQGTKVEIK

These binders were tested against PDGFR-alpha on MG-63 cells (human, UniProt P16234 24-1089) (assay: cell-based or functional assay).
Chain of PDGFR-alpha on MG-63 cells (P16234 24-1089): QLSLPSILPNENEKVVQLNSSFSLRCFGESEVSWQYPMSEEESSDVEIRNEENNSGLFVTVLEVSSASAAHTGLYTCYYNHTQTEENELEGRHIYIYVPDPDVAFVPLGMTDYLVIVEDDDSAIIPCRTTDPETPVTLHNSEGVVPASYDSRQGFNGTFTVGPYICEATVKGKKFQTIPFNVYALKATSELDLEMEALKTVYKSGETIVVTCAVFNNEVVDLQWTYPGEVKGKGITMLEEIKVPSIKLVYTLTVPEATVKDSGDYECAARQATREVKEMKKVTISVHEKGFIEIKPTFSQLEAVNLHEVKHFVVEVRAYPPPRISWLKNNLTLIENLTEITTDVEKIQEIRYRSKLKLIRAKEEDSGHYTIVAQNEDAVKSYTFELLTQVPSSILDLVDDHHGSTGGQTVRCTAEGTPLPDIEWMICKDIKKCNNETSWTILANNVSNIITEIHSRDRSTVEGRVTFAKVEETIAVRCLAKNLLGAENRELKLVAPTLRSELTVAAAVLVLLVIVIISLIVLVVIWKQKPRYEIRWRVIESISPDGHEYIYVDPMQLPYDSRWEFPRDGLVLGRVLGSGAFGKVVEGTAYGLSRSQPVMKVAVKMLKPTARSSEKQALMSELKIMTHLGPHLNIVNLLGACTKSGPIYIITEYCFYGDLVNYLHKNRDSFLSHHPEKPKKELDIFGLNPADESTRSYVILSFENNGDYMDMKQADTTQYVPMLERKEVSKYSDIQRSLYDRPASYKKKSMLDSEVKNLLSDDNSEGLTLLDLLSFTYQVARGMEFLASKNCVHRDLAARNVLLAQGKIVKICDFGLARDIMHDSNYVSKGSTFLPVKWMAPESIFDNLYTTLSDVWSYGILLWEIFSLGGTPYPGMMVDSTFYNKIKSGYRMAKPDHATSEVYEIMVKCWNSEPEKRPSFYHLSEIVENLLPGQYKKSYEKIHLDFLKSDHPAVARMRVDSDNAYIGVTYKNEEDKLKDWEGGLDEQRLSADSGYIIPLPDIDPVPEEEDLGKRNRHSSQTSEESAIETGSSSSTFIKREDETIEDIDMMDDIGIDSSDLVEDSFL
With B1 the “Average pTyr Inhibition” value was greater than 100%. With B2 the “Average pTyr Inhibition” value was greater than 100%.

The binders below were run against PDGFR-alpha on human osteosarcoma MG-63 cells (human, UniProt P16234 24-1089) (assay: cell-based or functional assay).
Chain of PDGFR-alpha on human osteosarcoma MG-63 cells (P16234 24-1089): as above
With B3 the “Proliferation Assay: IC50 ng/ml (1-6-06)” value was greater than 10000 ng/mL and the “pTyr Assay: % Inhibition @ 2 µg/ml” value was 77%. B4 was tested, and the “Proliferation Assay: IC50 ng/ml (1-6-06)” value was greater than 10000 ng/mL and the “pTyr Assay: % Inhibition @ 2 µg/ml” value was 65%. With B5 the “Proliferation Assay: IC50 ng/ml (1-6-06)” value was 2.2 ng/mL and the “pTyr Assay: % Inhibition @ 2 µg/ml” value was 31%. B6 was tested, and the “Proliferation Assay: IC50 ng/ml (1-6-06)” value was 150 ng/mL and the “pTyr Assay: % Inhibition @ 2 µg/ml” value was 26%. With B7 the “pTyr Assay: % Inhibition @ 2 µg/ml” value was -9%. In the case of B8, the “pTyr Assay: % Inhibition @ 2 µg/ml” value is reported as -3%. B9 was tested, and the “pTyr Assay: % Inhibition @ 2 µg/ml” value was 85%. In the case of B10, the “pTyr Assay: % Inhibition @ 2 µg/ml” value is reported as 61%. B11 was tested, and the “Proliferation Assay: IC50 ng/ml (1-6-06)” value was 168 ng/mL and the “pTyr Assay: % Inhibition @ 2 µg/ml” value was 56%. B12 was tested, and the “Proliferation Assay: IC50 ng/ml (1-6-06)” value was 1020 ng/mL and the “pTyr Assay: % Inhibition @ 2 µg/ml” value was 58%. B13 was tested, and the “Proliferation Assay: IC50 ng/ml (1-6-06)” value was 4600 ng/mL and the “pTyr Assay: % Inhibition @ 2 µg/ml” value was 92%. For B14, the “Proliferation Assay: IC50 ng/ml (1-6-06)” value was 6240 ng/mL and the “pTyr Assay: % Inhibition @ 2 µg/ml” value was 69%. B15 was tested, and the “Proliferation Assay: IC50 ng/ml (1-6-06)” value was 3820 ng/mL and the “pTyr Assay: % Inhibition @ 2 µg/ml” value was -3%. B16 was tested, and the “Proliferation Assay: IC50 ng/ml (1-6-06)” value was greater than 10000 ng/mL and the “pTyr Assay: % Inhibition @ 2 µg/ml” value was 74%. B17 was tested, and the “Proliferation Assay: IC50 ng/ml (1-6-06)” value was 61.9 ng/mL and the “pTyr Assay: % Inhibition @ 2 µg/ml” value was 84%.
